# Laboratory results taken from article PMC3436176 (The Journal of Biological Chemistry, 2012).
# B1: Collagen type III: Pepsin-treated bovine type III collagen from Koken (protein)
# chain: EYEAYDVKSGVAGGGIAGYPGPAGPPGPPGPPGTSGHPGAPGAPGYQGPPGEPGQAGPAGPPGPPGAIGPSGKDGESGRPGRPGPRGFPGPPGMKGPAGMPGFPGMKGHRGFDGRNGEKGEPGAPGLKGENGVPGEDGAPGPMGPRGAPGERGRPGLPGAAGARGNDGARGSDGQPGPPGPPGTAGFPGSPGAKGEVGPAGSPGSSGAPGQRGEPGPQGHAGAPGPPGPPGSDGSPGGKGEMGPAGIPGAPGLIGARGPPGPPGTNGVPGQRGAAGEPGKNGAKGDPGPRGERGEAGSPGIAGPKGEDGKDGSPGEPGANGLPGAAGERGVPGFRGPAGANGLPGEKGPPGDRGGPGPAGPRGVAGEPGRNGLPGGPGLRGIPGSPGGPGSNGKPGPPGSQGETGRPGPPGSPGPRGQPGVMGFPGPKGNDGAPGKNGERGGPGGPGPQGPAGKNGETGPQGPPGPTGPSGDKGDTGPPGPQGLQGLPGTSGPPGENGKPGEPGPKGEAGAPGIPGGKGDSGAPGERGPPGAGGPPGPRGGAGPPGPEGGKGAAGPPGPPGSAGTPGLQGMPGERGGPGGPGPKGDKGEPGSSGVDGAPGKDGPRGPTGPIGPPGPAGQPGDKGESGAPGVPGIAGPRGGPGERGEQGPPGPAGFPGAPGQNGEPGAKGERGAPGEKGEGGPPGAAGPAGGSGPAGPPGPQGVKGERGSPGGPGAAGFPGGRGPPGPPGSNGNPGPPGSSGAPGKDGPPGPPGSNGAPGSPGISGPKGDSGPPGERGAPGPQGPPGAPGPLGIAGLTGARGLAGPPGMPGARGSPGPQGIKGENGKPGPSGQNGERGPPGPQGLPGLAGTAGEPGRDGNPGSDGLPGRDGAPGAKGDRGENGSPGAPGAPGHPGPPGPVGPAGKSGDRGETGPAGPSGAPGPAGSRGPPGPQGPRGDKGETGERGAMGIKGHRGFPGNPGAPGSPGPAGHQGAVGSPGPAGPRGPVGPSGPPGKDGASGHPGPIGPPGPRGNRGERGSEGSPGHPGQPGPPGPPGAPGPCCGAGGVAAI
# Target: T1, GPVI-Fc2 (GPVI dimer) (Homo sapiens, UniProt Q9HCN6)
# T1 sequence (Q9HCN6 21-214 limits assumed): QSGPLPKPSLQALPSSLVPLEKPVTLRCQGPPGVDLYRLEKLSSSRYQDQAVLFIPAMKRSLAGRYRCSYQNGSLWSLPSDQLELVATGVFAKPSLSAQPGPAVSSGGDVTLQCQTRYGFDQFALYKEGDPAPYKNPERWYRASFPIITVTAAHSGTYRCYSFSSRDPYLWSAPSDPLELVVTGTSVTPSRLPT
# Test: ELISA: GPVI dimer binding to immobilized collagenous substrates
molecule,measurement,setting,value
B1,Kd (monomer)/Kd (dimer),binding to collagenous substrates,236.7
same,Hill coefficient for dimer binding,"mean ± S.E., n = 4-12 as printed",1.16 ± 0.11
